Laboratory results reported in patent US20130345115A1.

Key:
[1] = target: (Δ1-28) H4 nucleosome (mononucleosome with FLAG-HA-tagged tailless human H4 lacking the first 28 amino acids) (human; human (293T cells)) (UniProt P62805); test: MudPIT, co-purification
[2] = target: Wild type H4 nucleosome (mononucleosome with FLAG-HA-tagged wild type human H4) (human; human (293T cells)) (UniProt P62805); test: MudPIT, co-purification

| amino acid coverage [1] | peptide count [1] | amino acid coverage [2] | peptide count [2] | Substance |
| --- | --- | --- | --- | --- |
| 8.8% | 1 peptides | – | – | ADP-ribosylation factor 1 (from UniProt P84077 2-181) |
| – | 0 peptides | 5.7% | 3 peptides | EuHMT1 (from UniProt Q9H9B1 2-1298) (enzyme) |
| 16.2% | 2 peptides | 21.2% | 3 peptides | H1 histone family, member 0 (H1F0) (from UniProt P07305 2-194) |
| 74.1% | 6 peptides | 63.1% | 5 peptides | Histone H2A |
| 59.4% | 5 peptides | 54.7% | 5 peptides | Histone H2B |
| 89.6% | 7 peptides | 82.6% | 6 peptides | Histone H3 |
| 8.9% | 1 peptides | – | – | RAD23 homolog B (S. cerevisiae) (from UniProt P54727 1-409) |
| 21.3% | 8 peptides | 19.1% | 7 peptides | RuvB-like 1 (E. coli) (from UniProt Q9Y265 1-456) |
| 16.3% | 8 peptides | 13.4% | 5 peptides | RuvB-like 2 (E. coli) (from UniProt Q9Y230 2-463) |
| – | – | 4.3% | 3 peptides | SWI/SNF complex 170 KDa subunit (from UniProt Q8TAQ2 1-1214) |
| 19.2% | 9 peptides | 24.9% | 11 peptides | SWI/SNF related, matrix associated, actin dependent regulator of chromatin, subfamily a, member 1 (from UniProt P28370 1-1042) |
| 28.3% | 13 peptides | 20% | 9 peptides | SWI/SNF related, matrix associated, actin dependent regulator of chromatin, subfamily a, member 5 (from UniProt O60264 2-1052) |
| 1.9% | 3 peptides | – | – | Snf2-related CREBBP activator protein (from UniProt Q6ZRS2 1-3230) |
| – | – | 6.6% | 5 peptides | TATA box binding protein-associated factor, 135 kDa (from UniProt O00268 1-1085) |
| 11.4% | 2 peptides | – | – | WD repeat domain 77 (from UniProt Q9BQA1 1-342) |
| 5.3% | 2 peptides | 4.4% | 2 peptides | X-ray repair complementing defective repair in Chinese hamster cells 5 (from UniProt P13010 2-732) |
| 3.2% | 1 peptides | 5.7% | 2 peptides | X-ray repair complementing defective repair in Chinese hamster cells 6 (from UniProt P12956 2-609) |
| 18.8% | 2 peptides | – | – | anti-silencing function 1 homolog B (from UniProt Q9NVP2 1-202) |
| 4.9% | 3 peptides | 5.5% | 3 peptides | chromatin assembly factor 1, subunit A (from UniProt Q13111 1-956) |
| 22.8% | 3 peptides | 17.3% | 2 peptides | chromobox homolog 1 (HP1 beta homolog Drosophila) (from UniProt P83916 1-185) |
| 14.7% | 2 peptides | 13.2% | 2 peptides | chromobox homolog 3 (HP1 gamma homolog, Drosophila) (from UniProt Q13185 2-183) |
| 21.4% | 3 peptides | 21.4% | 3 peptides | chromobox homolog 5 (HP1 alpha homolog, Drosophila) (from UniProt P45973 1-191) |
| 0.6% | 1 peptides | 1.2% | 2 peptides | chromodomain helicase DNA binding protein 4 (from UniProt Q14839 1-1912) |

| amino acid coverage [1] | peptide count [1] | amino acid coverage [2] | peptide count [2] | Substance |
| --- | --- | --- | --- | --- |
| 3.7% | 2 peptides | 5.4% | 3 peptides | damage-specific DNA binding protein 1, 127 kDa (from UniProt Q16531 2-1140) |
| – | 0 peptides | 4% | 2 peptides | euchromatic histone-lysine N-methyltransferase 2 (G9a) (from UniProt Q96KQ7 2-1210) (enzyme) |
| 8.4% | 1 peptides | 13.7% | 2 peptides | histone H2AX (from UniProt P16104 2-143) |
| 11.8% | 2 peptides | 11.2% | 2 peptides | histone cluster 1, H1a (HIST1H1A) (from UniProt Q02539 2-215) |
| 12.8% | 2 peptides | 12.5% | 2 peptides | histone cluster 1, H1b (HIST1H1B) (from UniProt P16401 2-226) |
| 12.3% | 2 peptides | 10.3% | 2 peptides | histone cluster 1, H1c (HIST1H1C) (from UniProt P16403 2-213) |
| 6.4% | 1 peptides | 8.6% | 1 peptides | histone cluster 1, H1d (HIST1H1D) (from UniProt P16402 2-221) |
| 11.8% | 2 peptides | 6.2% | 1 peptides | histone cluster 1, H1e (HIST1H1E) (from UniProt P10412 2-219) |
| – | 0 peptides | 12.9% | 5 peptides | histone deacetylase 1 (from UniProt Q13547 1-482) (enzyme) |
| 48.2% | 10 peptides | 55.1% | 11 peptides | macroH2A1.1 and macroH2A1.2 (from UniProt O75367 1-369) |
| 18.4% | 4 peptides | – | – | mediator of DNA-damage checkpoint 1 (from UniProt Q14676 1-2089) |
| – | – | 4.6% | 2 peptides | metal response element binding transcription factor 2 (from UniProt Q9Y483 1-593) |
| 3.1% | 1 peptides | 12.3% | 5 peptides | methyl CpG binding protein 2 (Rett syndrome) (from UniProt P51608 1-486) |
| 16.3% | 8 peptides | 12% | 6 peptides | nucleolin (from UniProt P19338 2-710) |
| 44.2% | 23 peptides | 41.3% | 21 peptides | poly (ADP-ribose) polymerase 1 (from UniProt P09874 2-1014) (enzyme) |
| 23.8% | 9 peptides | 21.8% | 9 peptides | protein arginine methyltransferase 5 (from UniProt O14744 2-637) (enzyme) |
| 11.7% | 10 peptides | 12.2% | 12 peptides | remodeling and spacing factor 1 (from UniProt Q96T23 1-1441) |
| 11.9% | 7 peptides | 15.8% | 9 peptides | structure specific recognition protein 1 (from UniProt Q08945 2-709) |
| 21.6% | 12 peptides | 17.2% | 12 peptides | suppressor of Ty 16 homolog (S. cerevisiae) (from UniProt Q9Y5B9 2-1047) |
| 1.4% | 1 peptides | 5.1% | 3 peptides | suppressor of zeste 12 homolog (Drosophila) (from UniProt Q15022 1-739) |
| – | – | 3.4% | 2 peptides | thyroid hormone receptor-associated protein complex component (from UniProt Q9Y2W1 2-955) |
| 4.2% | 3 peptides | 7.4% | 5 peptides | topoisomerase (DNA) I (from UniProt P11387 2-765) (enzyme) |
| – | – | 2.4% | 3 peptides | transcription factor 20 (AR1) (from UniProt Q9UGU0 1-1960) |

| Substance | amino acid coverage [1] | peptide count [1] | amino acid coverage [2] | peptide count [2] |
| --- | --- | --- | --- | --- |
| death-domain associated protein (from UniProt Q9UER7 1-740) | 2.4% | 1 peptides | – | – |
